# Assay results from US20250163167A1 (SYNTHEKINE, published 2025).
# T1: human IL-10 receptor (hIL-10R alpha and beta chains) on HEK-Blue IL-10 reporter cells (human, UniProt Q13651 22-578; Q08334 20-325)
# T1 sequence 1: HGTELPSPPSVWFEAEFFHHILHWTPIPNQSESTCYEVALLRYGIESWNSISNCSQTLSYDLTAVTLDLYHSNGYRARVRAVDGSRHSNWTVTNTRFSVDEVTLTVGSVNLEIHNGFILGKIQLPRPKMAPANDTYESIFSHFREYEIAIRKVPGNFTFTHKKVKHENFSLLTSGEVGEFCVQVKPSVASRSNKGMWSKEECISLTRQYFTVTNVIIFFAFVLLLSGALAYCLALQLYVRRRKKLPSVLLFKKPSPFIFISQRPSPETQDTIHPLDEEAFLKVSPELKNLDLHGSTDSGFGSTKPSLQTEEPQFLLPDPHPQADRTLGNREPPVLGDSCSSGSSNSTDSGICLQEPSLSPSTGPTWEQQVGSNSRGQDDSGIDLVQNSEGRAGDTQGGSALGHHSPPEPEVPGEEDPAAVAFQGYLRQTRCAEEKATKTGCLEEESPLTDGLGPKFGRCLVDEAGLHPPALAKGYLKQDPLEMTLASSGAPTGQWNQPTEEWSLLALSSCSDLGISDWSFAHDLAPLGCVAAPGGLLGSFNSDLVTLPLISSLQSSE
# T1 sequence 2: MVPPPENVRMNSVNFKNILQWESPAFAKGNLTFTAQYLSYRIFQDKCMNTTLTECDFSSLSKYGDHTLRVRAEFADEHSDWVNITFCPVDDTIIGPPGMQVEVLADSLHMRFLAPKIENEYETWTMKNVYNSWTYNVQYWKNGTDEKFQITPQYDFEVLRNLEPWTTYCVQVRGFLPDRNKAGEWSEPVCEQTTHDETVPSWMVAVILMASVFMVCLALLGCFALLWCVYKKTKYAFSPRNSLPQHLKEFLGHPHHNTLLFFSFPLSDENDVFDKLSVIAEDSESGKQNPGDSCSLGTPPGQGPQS
# B1: IL10R binding molecule of SEQ ID NO: 314 (bispecific antibody)
# chain: QVQLQESGGGSVQAGGSLRLSCAASGYTYSSYCMGWFRQAPGKEREGVAHIDSDGSTSYADSVKGRFTISKDNAKNTLYLQMNSLKPEDTAMYYCAADPIPGPGYCDGGPNKYWGQGTQVTVSSGGGSQVQLQESGGGSVQAGGSLRLSCAASGYTYSMYCMGWFRQAPGKEREGVAQINSDGSTSYADSVKGRFTISKDNAKNTLYLQMNSLKPEDTAMYYCAADSRVYGGSWYERLCGPYTYEYNYWGQGTQVTVSSASHHHHHH
# B2: IL10R binding molecule of SEQ ID NO: 323 (bispecific antibody)
# chain: QVQLQESGGGSVQAGGSLRLSCAASRYTYNSYCMGWFRQAPGKEREGVATIDSDGMTRYADSVKGRFTISKDNAKNTLYLQMNSLKPEDTAMYYCAADADCTIAAMTTNPLGQGTQVTVSSGGGSQVQLQESGGGSVQAGGSLRLSCTVSGYTYSSNCMGWFRQAPGKEREGVATIYTGGGNTYYADSVKGRFTISQDNAKNTVYLQMNNLKPEDTAMYYCAAEPLSRVYGGSCPTPTFDYWGQGTQVTVSSASHHHHHH
# B3: IL10R binding molecule of SEQ ID NO: 324 (bispecific antibody)
# chain: QVQLQESGGGSVQAGGSLRLSCAASRYTYNSYCMGWFRQAPGKEREGVATIDSDGMTRYADSVKGRFTISKDNAKNTLYLQMNSLKPEDTAMYYCAADADCTIAAMTTNPLGQGTQVTVSSGGGSQVQLQESGGGSVQAGGSLRLSCGASGYTYSSYCMGWFRQVPGKEREGVAVIDSDGSTSYADSVKGRFTISKDNGKNTLYLQMNSLKPEDTAMYYCAADLGHYRPPCGVLYLGMDYWGKGTQVTVSSASHHHHHH
# B4: IL10R binding molecule of SEQ ID NO: 261 (bispecific antibody)
# chain: QVQLQESGGGSVQAGGSLRLSCAASRYLYSIDYMAWFRQSPGKEREPVAVIYTASGATFYPDSVKGRFTISQDNAKMTVYLQMNSLKSEDTAMYYCAAVRKTDSYLFDAQSFTYWGQGTQVTVSSGGGSQVQLQESGGGSVQAGGSLRLSCAASGYSYSSYCMGWFRQAPGKEREGVATIDSDGMTRYADSVKGRFTISKDNAKNTLYLQMNSLKPEDTAMYYCAAPLYDCDSGAVGRNPPYWGQGTQVTVSSASHHHHHH
# B5: IL10R binding molecule of SEQ ID NO: 319 (bispecific antibody)
# chain: QVQLQESGGGSVQAGGSLRLSCAASRYTYNSYCMGWFRQAPGKEREGVATIDSDGMTRYADSVKGRFTISKDNAKNTLYLQMNSLKPEDTAMYYCAADADCTIAAMTTNPLGQGTQVTVSSGGGSQVQLQESGGGSVQAGGSLRLSCAASRYLYSIDYMAWFRQSPGKEREPVAVIYTASGATFYPDSVKGRFTISQDNAKMTVYLQMNSLKSEDTAMYYCAAVRKTDSYLFDAQSFTYWGQGTQVTVSSASHHHHHH
# B6: IL10R binding molecule of SEQ ID NO: 316 (bispecific antibody)
# chain: QVQLQESGGGSVQAGGSLRLSCAASGYTYSSYCMGWFRQAPGKEREGVAHIDSDGSTSYADSVKGRFTISKDNAKNTLYLQMNSLKPEDTAMYYCAADPIPGPGYCDGGPNKYWGQGTQVTVSSGGGSQVQLQESGGGSVQAGGSLRLSCTVSGYTYSSNCMGWFRQAPGKEREGVATIYTGGGNTYYADSVKGRFTISQDNAKNTVYLQMNNLKPEDTAMYYCAAEPLSRVYGGSCPTPTFDYWGQGTQVTVSSASHHHHHH
# B7: IL10R binding molecule of SEQ ID NO: 321 (bispecific antibody)
# chain: QVQLQESGGGSVQAGGSLRLSCAASRYTYNSYCMGWFRQAPGKEREGVATIDSDGMTRYADSVKGRFTISKDNAKNTLYLQMNSLKPEDTAMYYCAADADCTIAAMTTNPLGQGTQVTVSSGGGSQVQLQESGGGSVQAGGSLRLSCAASGYTYSMYCMGWFRQAPGKEREGVAQINSDGSTSYADSVKGRFTISKDNAKNTLYLQMNSLKPEDTAMYYCAADSRVYGGSWYERLCGPYTYEYNYWGQGTQVTVSSASHHHHHH
# B8: IL10R binding molecule of SEQ ID NO: 327 (bispecific antibody)
# chain: QVQLQESGGGSVQAGGSLRLSCTVSRYTASVNYMGWFRQAPGKEREGVATIFTGAGTTYYANSVKGRFTISRDNAKNTAYLQMNSLKPEDTAIYYCAVDFRGGLLYRPAYEYTYRGQGTQVTVSSGGGSQVQLQESGGGSVQAGGSLRLSCAASRFTYSSYCMGWFRQAPGKEREGVASIDSDGSTSYTDSVKGRFTISKDNAKNTLYLQMNSLKPEDTAMYYCALDLMSTVVPGFCGFLLSAGMDYWGKGTQVTVSSASHHHHHH
# B9: IL10R binding molecule of SEQ ID NO: 326 (bispecific antibody)
# chain: QVQLQESGGGSVQAGGSLRLSCTVSRYTASVNYMGWFRQAPGKEREGVATIFTGAGTTYYANSVKGRFTISRDNAKNTAYLQMNSLKPEDTAIYYCAVDFRGGLLYRPAYEYTYRGQGTQVTVSSGGGSQVQLQESGGGSVQAGGSLRLSCAASRYLYSIDYMAWFRQSPGKEREPVAVIYTASGATFYPDSVKGRFTISQDNAKMTVYLQMNSLKSEDTAMYYCAAVRKTDSYLFDAQSFTYWGQGTQVTVSSASHHHHHH
# B10: IL10R binding molecule of SEQ ID NO: 317 (bispecific antibody)
# chain: QVQLQESGGGSVQAGGSLRLSCAASGYTYSSYCMGWFRQAPGKEREGVAHIDSDGSTSYADSVKGRFTISKDNAKNTLYLQMNSLKPEDTAMYYCAADPIPGPGYCDGGPNKYWGQGTQVTVSSGGGSQVQLQESGGGSVQAGGSLRLSCGASGYTYSSYCMGWFRQVPGKEREGVAVIDSDGSTSYADSVKGRFTISKDNGKNTLYLQMNSLKPEDTAMYYCAADLGHYRPPCGVLYLGMDYWGKGTQVTVSSASHHHHHH
# B11: IL10R binding molecule of SEQ ID NO: 320 (bispecific antibody)
# chain: QVQLQESGGGSVQAGGSLRLSCAASRYTYNSYCMGWFRQAPGKEREGVATIDSDGMTRYADSVKGRFTISKDNAKNTLYLQMNSLKPEDTAMYYCAADADCTIAAMTTNPLGQGTQVTVSSGGGSQVQLQESGGGSVQAGGSLRLSCAASRFTYSSYCMGWFRQAPGKEREGVASIDSDGSTSYTDSVKGRFTISKDNAKNTLYLQMNSLKPEDTAMYYCALDLMSTVVPGFCGFLLSAGMDYWGKGTQVTVSSASHHHHHH
# B12: IL10R binding molecule of SEQ ID NO: 318 (bispecific antibody)
# chain: QVQLQESGGGSVQAGGSLRLSCAASGYTYSSYCMGWFRQAPGKEREGVAHIDSDGSTSYADSVKGRFTISKDNAKNTLYLQMNSLKPEDTAMYYCAADPIPGPGYCDGGPNKYWGQGTQVTVSSGGGSQVQLQESGGGSVQAGGSLRLSCAASGYSNCSYDMTWYRQAPGKEREFVSAIHSDGSTRYADSVKGRFFISQDNAKNTVYLQMNSLKPEDTAMYYCKTDPLHCRAHGGSWYSVRANYWGQGTQVTVSSASHHHHHH
# B13: IL10R binding molecule of SEQ ID NO: 315 (bispecific antibody)
# chain: QVQLQESGGGSVQAGGSLRLSCAASGYTYSSYCMGWFRQAPGKEREGVAHIDSDGSTSYADSVKGRFTISKDNAKNTLYLQMNSLKPEDTAMYYCAADPIPGPGYCDGGPNKYWGQGTQVTVSSGGGSQVQLQESGGGSVQAGGSLRLSCAVSGYAYSTYCMGWFRQAPGKEREGVAAIDSGGSTSYADSVKGRFTISKDNAKNTLYLRMNSLKPEDTAMYYCAAVPPPPDGGSCLFLGPEIKVSKADFRYWGQGTQVTVSSASHHHHHH
# B14: IL10R binding molecule of SEQ ID NO: 328 (bispecific antibody)
# chain: QVQLQESGGGSVQAGGSLRLSCTVSRYTASVNYMGWFRQAPGKEREGVATIFTGAGTTYYANSVKGRFTISRDNAKNTAYLQMNSLKPEDTAIYYCAVDFRGGLLYRPAYEYTYRGQGTQVTVSSGGGSQVQLQESGGGSVQAGGSLRLSCAASGYTYSMYCMGWFRQAPGKEREGVAQINSDGSTSYADSVKGRFTISKDNAKNTLYLQMNSLKPEDTAMYYCAADSRVYGGSWYERLCGPYTYEYNYWGQGTQVTVSSASHHHHHH
# B15: IL10R binding molecule of SEQ ID NO: 325 (bispecific antibody)
# chain: QVQLQESGGGSVQAGGSLRLSCAASRYTYNSYCMGWFRQAPGKEREGVATIDSDGMTRYADSVKGRFTISKDNAKNTLYLQMNSLKPEDTAMYYCAADADCTIAAMTTNPLGQGTQVTVSSGGGSQVQLQESGGGSVQAGGSLRLSCAASGYSNCSYDMTWYRQAPGKEREFVSAIHSDGSTRYADSVKGRFFISQDNAKNTVYLQMNSLKPEDTAMYYCKTDPLHCRAHGGSWYSVRANYWGQGTQVTVSSASHHHHHH
# B16: IL10R binding molecule of SEQ ID NO: 322 (bispecific antibody)
# chain: QVQLQESGGGSVQAGGSLRLSCAASRYTYNSYCMGWFRQAPGKEREGVATIDSDGMTRYADSVKGRFTISKDNAKNTLYLQMNSLKPEDTAMYYCAADADCTIAAMTTNPLGQGTQVTVSSGGGSQVQLQESGGGSVQAGGSLRLSCAVSGYAYSTYCMGWFRQAPGKEREGVAAIDSGGSTSYADSVKGRFTISKDNAKNTLYLRMNSLKPEDTAMYYCAAVPPPPDGGSCLFLGPEIKVSKADFRYWGQGTQVTVSSASHHHHHH
# Molecular target: T1, human IL-10 receptor (hIL-10R alpha and …)
# Experiment: cell-based or functional assay
Binder,Abs 630 (25 nM) [Abs 630],Abs 630 (100 nM) [Abs 630]
B1,0.49,0.42
B2,0.64,0.38
B3,0.61,0.44
B4,0.44,0.34
B5,0.47,0.36
B6,0.48,0.39
B7,0.46,0.4
B8,0.52,0.54
B9,0.47,0.56
B10,0.45,0.38
B11,0.54,0.41
B12,0.5,0.45
B13,0.51,0.41
B14,0.44,0.34
B15,0.49,0.42
B16,0.46,0.41
